According to US20200024330A1:

Tests used:
[1] = target: Env of the clade G HIV-1 pseudoviruses of the cross-clade 162-pseudovirus panel (n = 15); test: cell-based or functional assay
[2] = target: HIV-1 JR-CSF Env S334A (HIV-1 isolate JR-CSF) (UniProt P20871); test: cell-based or functional assay
[3] = target: HIV-1 JR-CSF Env T303A (HIV-1 JR-CSF) (UniProt P20871); test: cell-based or functional assay
[4] = target: HIV-1 JR-CSF Env D417A (HIV-1 (isolate JR-CSF)) (UniProt P20871); test: cell-based or functional assay
[5] = target: HIV-1 JR-CSF Env N332A (HIV-1 isolate JR-CSF) (UniProt P20871); test: cell-based or functional assay
[6] = target: Env of the clade C HIV-1 pseudoviruses of the cross-clade 162-pseudovirus panel (n = 27); test: cell-based or functional assay
[7] = target: HIV-1 JR-CSF Env D325A (HIV-1 isolate JR-CSF) (UniProt P20871); test: cell-based or functional assay
[8] = target: HIV-1 JR-CSF Env N295A (HIV-1 JR-CSF) (UniProt P20871); test: cell-based or functional assay
[9] = target: HIV-1 JR-CSF Env T388A (HIV-1 (isolate JR-CSF)) (UniProt P20871); test: cell-based or functional assay
[10] = target: HIV-1 JR-CSF Env E321aA (HIV-1 isolate JR-CSF) (UniProt P20871); test: cell-based or functional assay
[11] = target: HIV-1 JR-CSF Env R419A (HIV-1 (isolate JR-CSF)) (UniProt P20871); test: cell-based or functional assay
[12] = target: HIV-1 JR-CSF Env V292A (HIV-1 JR-CSF) (UniProt P20871); test: cell-based or functional assay
[13] = target: HIV-1 JR-CSF Env I415A (HIV-1 (isolate JR-CSF)) (UniProt P20871); test: cell-based or functional assay
[14] = target: HIV-1 JR-CSF Env N411A (HIV-1 (isolate JR-CSF)) (UniProt P20871); test: cell-based or functional assay
[15] = target: HIV-1 JR-CSF Env P299A (HIV-1 JR-CSF) (UniProt P20871); test: cell-based or functional assay
[16] = target: HIV-1 JR-CSF Env F317A (HIV-1 isolate JR-CSF) (UniProt P20871); test: cell-based or functional assay
[17] = target: HIV-1 JR-CSF Env T297A (HIV-1 JR-CSF) (UniProt P20871); test: cell-based or functional assay
[18] = target: HIV-1 JR-CSF Env I424A (HIV-1 (isolate JR-CSF)) (UniProt P20871); test: cell-based or functional assay
[19] = target: HIV-1 JR-CSF Env I414A (HIV-1 (isolate JR-CSF)) (UniProt P20871); test: cell-based or functional assay
[20] = target: HIV-1 JR-CSF Env S387A (HIV-1 (isolate JR-CSF)) (UniProt P20871); test: cell-based or functional assay
[21] = target: HIV-1 JR-CSF Env R327A (HIV-1 isolate JR-CSF) (UniProt P20871); test: cell-based or functional assay
[22] = target: HIV-1 JR-CSF Env I309A (HIV-1 JR-CSF) (UniProt P20871); test: cell-based or functional assay
[23] = target: HIV-1 JR-CSF Env K343A (HIV-1 isolate JR-CSF) (UniProt P20871); test: cell-based or functional assay
[24] = target: HIV-1 JR-CSF Env N241A (HIV-1 JR-CSF) (UniProt P20871); test: cell-based or functional assay
[25] = target: HIV-1 JR-CSF Env K305A (HIV-1 JR-CSF) (UniProt P20871); test: cell-based or functional assay
[26] = target: HIV-1 JR-CSF Env R315A (HIV-1 isolate JR-CSF) (UniProt P20871); test: cell-based or functional assay
[27] = target: HIV-1 JR-CSF Env N386A (HIV-1 isolate JR-CSF) (UniProt P20871); test: cell-based or functional assay
[28] = target: HIV-1 JR-CSF Env T341A (HIV-1 isolate JR-CSF) (UniProt P20871); test: cell-based or functional assay
[29] = target: HIV-1 JR-CSF Env N339A (HIV-1 isolate JR-CSF) (UniProt P20871); test: cell-based or functional assay
[30] = target: HIV-1 JR-CSF Env T394A (HIV-1 (isolate JR-CSF)) (UniProt P20871); test: cell-based or functional assay
[31] = target: HIV-1 JR-CSF Env P313A (HIV-1 JR-CSF) (UniProt P20871); test: cell-based or functional assay
[32] = target: Env of the clade D HIV-1 pseudoviruses of the cross-clade 162-pseudovirus panel (n = 25); test: cell-based or functional assay
[33] = target: HIV-1 JR-CSF Env Q337A (HIV-1 isolate JR-CSF) (UniProt P20871); test: cell-based or functional assay
[34] = target: HIV-1 JR-CSF Env N302A (HIV-1 JR-CSF) (UniProt P20871); test: cell-based or functional assay
[35] = target: Env of the clade A HIV-1 pseudoviruses of the cross-clade 162-pseudovirus panel (n = 26); test: cell-based or functional assay
[36] = target: HIV-1 JR-CSF Env N276A (HIV-1 JR-CSF) (UniProt P20871); test: cell-based or functional assay
[37] = target: HIV-1 JR-CSF Env T202A (HIV-1 JR-CSF) (UniProt P20871); test: cell-based or functional assay
[38] = target: JR-FL gp120 ΔV1/ΔV2 (HIV-1 (isolate JR-FL)); test: ELISA on coated gp120; EC50 by nonlinear regression
[39] = target: WT JR-FL gp120 (HIV-1 (isolate JR-FL)); test: as above

B1: PGT-128 (antibody, V domains shown)
VH: QPQLQESGPTLVEASETLSLTCAVSGDSTAACNSFWGWVRQPPGKGLEWVGSLSHCASYWNRGWTYHNPSLKSRLTLALDTPKNLVFLKLNSVTAADTATYYCARFGGEVLRYTDWPKPAWVDLWGRGTLVTVSS
VL: QSALTQPPSASGSPGQSITISCTGTSNNFVSWYQQHAGKAPKLVIYDVNKRPSGVPDRFSGSKSGNTASLTVSGLQTDDEAVYYCGSLVGNWDVIFGGGTKLTVL
Q: With B1 as the binder, how does the Median IC50 against viruses neutralized with an IC50 <50 µg/ml [1] read?
A: 0.04 µg/mL

Q: And the Fold IC50 increase relative to wild-type [2]?
A: 1.4 fold

Q: What about the Fold IC50 increase relative to wild-type [3] of the same binder?
A: > 500 fold

Q: What about the Fold IC50 increase relative to wild-type [4] of the same binder?
A: 0.5 fold

Q: What about the Fold IC50 increase relative to wild-type [5] of the same binder?
A: 1.4 fold

Q: And the Median IC50 against viruses neutralized with an IC50 <50 µg/ml [6]?
A: 0.04 µg/mL

Q: And the Fold IC50 increase relative to wild-type [7]?
A: 0.5 fold

Q: What about the Fold IC50 increase relative to wild-type [8] of the same binder?
A: 1 fold

Q: And the Fold IC50 increase relative to wild-type [9]?
A: 1 fold

Q: And the Fold IC50 increase relative to wild-type [10]?
A: 1.3 fold

Q: And the Fold IC50 increase relative to wild-type [11]?
A: 0.5 fold

Q: And the Fold IC50 increase relative to wild-type [12]?
A: 2.1 fold

Q: And the Fold IC50 increase relative to wild-type [13]?
A: 0.7 fold

Q: What about the Fold IC50 increase relative to wild-type [14] of the same binder?
A: 0.7 fold

Q: And the Fold IC50 increase relative to wild-type [15]?
A: 1.2 fold

Q: And the Fold IC50 increase relative to wild-type [16]?
A: 0.8 fold

Q: What about the Fold IC50 increase relative to wild-type [17] of the same binder?
A: 1.1 fold

Q: And the Fold IC50 increase relative to wild-type [18]?
A: 1.3 fold

Q: What about the Fold IC50 increase relative to wild-type [19] of the same binder?
A: 1.4 fold

Q: What about the Fold IC50 increase relative to wild-type [20] of the same binder?
A: 1.2 fold

Q: And the Fold IC50 increase relative to wild-type [21]?
A: 2.5 fold

Q: And the Fold IC50 increase relative to wild-type [22]?
A: 2.8 fold

Q: What about the Fold IC50 increase relative to wild-type [23] of the same binder?
A: 1 fold

Q: What about the Fold IC50 increase relative to wild-type [24] of the same binder?
A: 0.7 fold

Q: What about the Fold IC50 increase relative to wild-type [25] of the same binder?
A: 1.8 fold

Q: And the Fold IC50 increase relative to wild-type [26]?
A: 0.4 fold

Q: And the Fold IC50 increase relative to wild-type [27]?
A: 1.1 fold

Q: What about the Fold IC50 increase relative to wild-type [28] of the same binder?
A: 1.3 fold

Q: What about the Fold IC50 increase relative to wild-type [29] of the same binder?
A: 0.8 fold

Q: And the Fold IC50 increase relative to wild-type [30]?
A: 3 fold

Q: What about the Fold IC50 increase relative to wild-type [31] of the same binder?
A: 1 fold

Q: What about the Median IC50 against viruses neutralized with an IC50 <50 µg/ml [32] of the same binder?
A: 0.02 µg/mL

Q: What about the Fold IC50 increase relative to wild-type [33] of the same binder?
A: 0.7 fold

Q: And the Fold IC50 increase relative to wild-type [34]?
A: 1.5 fold

Q: What about the Median IC50 against viruses neutralized with an IC50 <50 µg/ml [35] of the same binder?
A: 0.01 µg/mL

Q: And the Fold IC50 increase relative to wild-type [36]?
A: 0.6 fold

Q: And the Fold IC50 increase relative to wild-type [37]?
A: 1.1 fold

Q: What about the EC50 [38] of the same binder?
A: 0.3 µg/mL

Q: What about the EC50 [39] of the same binder?
A: 0.1 µg/mL

B2: PGT-135 (antibody, V domains shown)
VH: QLQMQESGPGLVKPSETLSLSCTVSGDSIRGGEWGDKDYHWGWVRHSAGKGLEWIGSIHWRGTTHYKESLRRRVSMSIDTSRNWFSLRLASVTAADTAVYFCARHRHHDVFMLVPIAGWFDVWGPGVQVTVSS
VL: EIVMTQSPDTLSVSPGETVTLSCRASQNINKNLAWYQYKPGQSPRLVIFETYSKIAAFPARFVASGSGTEFTLTINNMQSEDVAVYYCQQYEEWPRTFGQGTKVDIK
Q: How did the Median IC50 against viruses neutralized with an IC50 <50 µg/ml [1] turn out when B2 was run?
A: 0.14 µg/mL

Q: And the Fold IC50 increase relative to wild-type [2]?
A: > 30 fold

Q: And the Fold IC50 increase relative to wild-type [3]?
A: 0.3 fold

Q: What about the Fold IC50 increase relative to wild-type [4] of the same binder?
A: 5 fold

Q: And the Fold IC50 increase relative to wild-type [5]?
A: > 250 fold

Q: And the Median IC50 against viruses neutralized with an IC50 <50 µg/ml [6]?
A: 0.05 µg/mL

Q: And the Fold IC50 increase relative to wild-type [7]?
A: 0.5 fold

Q: And the Fold IC50 increase relative to wild-type [8]?
A: > 18 fold

Q: What about the Fold IC50 increase relative to wild-type [9] of the same binder?
A: 0.1 fold

Q: And the Fold IC50 increase relative to wild-type [10]?
A: 0.8 fold

Q: And the Fold IC50 increase relative to wild-type [11]?
A: 3.9 fold

Q: What about the Fold IC50 increase relative to wild-type [12] of the same binder?
A: 2 fold

Q: What about the Fold IC50 increase relative to wild-type [13] of the same binder?
A: 5 fold

Q: What about the Fold IC50 increase relative to wild-type [14] of the same binder?
A: 0.2 fold

Q: What about the Fold IC50 increase relative to wild-type [15] of the same binder?
A: 0.36 fold

Q: And the Fold IC50 increase relative to wild-type [16]?
A: 0.5 fold

Q: What about the Fold IC50 increase relative to wild-type [17] of the same binder?
A: > 30 fold

Q: What about the Fold IC50 increase relative to wild-type [18] of the same binder?
A: 0.1 fold

Q: And the Fold IC50 increase relative to wild-type [19]?
A: 1.2 fold

Q: And the Fold IC50 increase relative to wild-type [20]?
A: 0.6 fold

Q: And the Fold IC50 increase relative to wild-type [21]?
A: 0.67 fold

Q: And the Fold IC50 increase relative to wild-type [22]?
A: 0.3 fold

Q: What about the Fold IC50 increase relative to wild-type [23] of the same binder?
A: 1.1 fold

Q: What about the Fold IC50 increase relative to wild-type [24] of the same binder?
A: 0.1 fold

Q: And the Fold IC50 increase relative to wild-type [25]?
A: 0.2 fold

Q: And the Fold IC50 increase relative to wild-type [26]?
A: 1.8 fold

Q: And the Fold IC50 increase relative to wild-type [27]?
A: 0.3 fold

Q: And the Fold IC50 increase relative to wild-type [28]?
A: 0.6 fold

Q: And the Fold IC50 increase relative to wild-type [29]?
A: 1.2 fold

Q: And the Fold IC50 increase relative to wild-type [30]?
A: > 75 fold

Q: And the Fold IC50 increase relative to wild-type [31]?
A: 0.5 fold

Q: What about the Median IC50 against viruses neutralized with an IC50 <50 µg/ml [32] of the same binder?
A: 1.09 µg/mL

Q: And the Fold IC50 increase relative to wild-type [33]?
A: 2.1 fold

Q: And the Fold IC50 increase relative to wild-type [34]?
A: 0.8 fold

Q: And the Median IC50 against viruses neutralized with an IC50 <50 µg/ml [35]?
A: 0.64 µg/mL

Q: And the Fold IC50 increase relative to wild-type [36]?
A: 2.5 fold

Q: What about the Fold IC50 increase relative to wild-type [37] of the same binder?
A: 1.8 fold

Q: What about the EC50 [38] of the same binder?
A: 0.1 µg/mL

Q: And the EC50 [39]?
A: 0.1 µg/mL
